In patent US20240084042A1 (Genentech, published 2024):

T1: cynomolgus monkey KLK5 (cynomolgus monkey, UniProt Q9Y337 67-293 (human entry))
T1 chain: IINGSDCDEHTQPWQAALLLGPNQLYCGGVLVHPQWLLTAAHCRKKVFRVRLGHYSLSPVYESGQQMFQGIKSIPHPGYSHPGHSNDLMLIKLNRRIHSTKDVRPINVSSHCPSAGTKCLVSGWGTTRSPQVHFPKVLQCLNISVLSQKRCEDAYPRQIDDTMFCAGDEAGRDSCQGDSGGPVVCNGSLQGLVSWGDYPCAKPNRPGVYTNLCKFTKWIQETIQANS

T2: human KLK5 (human, UniProt Q9Y337 67-293)
T2 sequence: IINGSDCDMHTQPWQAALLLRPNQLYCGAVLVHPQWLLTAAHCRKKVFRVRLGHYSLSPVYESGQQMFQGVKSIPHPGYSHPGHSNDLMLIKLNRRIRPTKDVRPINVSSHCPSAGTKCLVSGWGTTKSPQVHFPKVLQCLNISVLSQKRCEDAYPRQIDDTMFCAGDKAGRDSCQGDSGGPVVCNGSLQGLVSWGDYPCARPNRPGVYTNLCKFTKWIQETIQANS


Experiments:
[1] = target: cyano KLK7 (SEQ ID NO: 6 plus a C-terminal FLAG tag) (cynomolgus monkey, UniProt P49862 30-253 (human entry)); experiment: cell-based or functional assay
cyano KLK7 (SEQ ID NO: 6 plus a C-terminal FLAG tag), sequence (P49862 other isoform, or with tags, fused parts or gaps): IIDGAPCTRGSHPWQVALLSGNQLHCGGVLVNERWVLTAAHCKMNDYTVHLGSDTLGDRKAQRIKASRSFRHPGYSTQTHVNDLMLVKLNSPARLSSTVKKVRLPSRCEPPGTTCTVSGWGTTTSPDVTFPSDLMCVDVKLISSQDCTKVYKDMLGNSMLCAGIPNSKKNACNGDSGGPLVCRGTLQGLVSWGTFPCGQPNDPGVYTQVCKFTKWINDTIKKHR

cynomolgus monkey KLK5 [2] = target: T1, cynomolgus monkey KLK5; experiment: cell-based or functional assay
[3] = target: human KLK7 (SEQ ID NO: 4 plus a C-terminal FLAG tag) (human, UniProt P49862 30-253); experiment: cell-based or functional assay
human KLK7 (SEQ ID NO: 4 plus a C-terminal FLAG tag), sequence (P49862 30-253): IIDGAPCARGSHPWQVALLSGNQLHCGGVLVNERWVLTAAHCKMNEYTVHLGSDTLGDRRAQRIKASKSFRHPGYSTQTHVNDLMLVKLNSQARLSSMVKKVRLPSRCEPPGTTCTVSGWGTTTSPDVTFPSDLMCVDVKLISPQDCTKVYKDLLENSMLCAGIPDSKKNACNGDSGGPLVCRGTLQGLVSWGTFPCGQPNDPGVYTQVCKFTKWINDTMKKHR

human KLK5 [4] = target: T2, human KLK5; experiment: cell-based or functional assay
cynomolgus monkey KLK5 [5] = target: T1, cynomolgus monkey KLK5; experiment: SPR, one-armed monovalent antibody
human KLK5 [6] = target: T2, human KLK5; experiment: SPR, one-armed monovalent antibody
human KLK7 [7] = target: T3, human KLK7 (human, UniProt P49862 30-253); experiment: SPR BIAcore 8K, antibody on protein A chip, 37 C
T3 construct: Antigen injected in SPR; also called hu KLK7; huKLK7
T3 sequence (P49862 30-253): as above
Procedure: The binding affinity of the humanized antibodies was determined by BIAcore™ 8K SPR system. For kinetics measurements, antibodies were captured on research grade protein A chip (GE Healthcare) to achieve approximately 300 RU. Ten-fold serial dilutions of human KLK7 were injected in HBS-P buffer at 37° C. with a flow rate of 100 μL/min. Association rates (ka) and dissociation rates (kd) were calculated using a 1:1 Langmuir binding model (BIAcore Insight Evaluation Software version 2.0). The equilibrium dissociation constant (KD) was calculated as the ratio kd/ka.

cynomolgus monkey KLK5 [8] = target: T1, cynomolgus monkey KLK5; experiment: kinetics of bispecific antibody, method not restated (SPR implied)
human KLK5 [9] = target: T2, human KLK5; experiment: as above
human KLK7 [10] = target: T3, human KLK7; experiment: as above
cynomolgus monkey KLK7 = target: T4, cynomolgus monkey KLK7 (cynomolgus monkey, UniProt P49862 30-253 (human entry)); experiment: as above
T4 construct: Antigen injected in SPR; also called Cy KLK7; cyno KLK7
T4 sequence (P49862 other isoform, or with tags, fused parts or gaps): as the sequence (P49862 other isoform, or with tags, fused parts or gaps) above

IC50, KLK7 direct functional assay (Mca-RPKPVE-Nval-WRK(Dnp)), bivalency corrected [1] | IC50, KLK5 direct functional assay (Boc-Val-Pro-Arg-AMC), bivalency corrected (cynomolgus monkey KLK5 [2]) | IC50, KLK7 direct functional assay (Mca-RPKPVE-Nval-WRK(Dnp)), bivalency corrected [3] | IC50, KLK5 direct functional assay (Boc-Val-Pro-Arg-AMC), bivalency corrected (human KLK5 [4]) | Kd (cynomolgus monkey KLK5 [5]) | koff (cynomolgus monkey KLK5 [5]) | kon (cynomolgus monkey KLK5 [5]) | Kd (human KLK5 [6]) | koff (human KLK5 [6]) | kon (human KLK5 [6]) | Kd (human KLK7 [7]) | koff (human KLK7 [7]) | kon (human KLK7 [7]) | Binder | also measured
> 10000 pM | 560 pM | > 10000 pM | 460 pM |  |  |  |  |  |  |  |  |  | hu10C5VY (antibody, V domains shown) VH: EVQLVESGGGLVQPGGSLRLSCAASGFSLSSYGVTWVRQAPGKGLEWIGYITSVYGVSYYASWAKSRSTISRDTSKNTVYLQMGSLRAEDMAVYYCARENPDYGYAYDAWGQGTTVTVSS VL: AIRMTQSPSSFSASTGDRVTITCQASESISNELSWYQQKPGKAPKLLIYYASTLASGVPSRFSGSGSGTDFTLTISSLQPEDFATYYCAQGYGSSGVENVFGGGTKVEIK | 
 |  |  |  | 5.22 pM | 3.08e-05 s⁻¹ | 5.9e+06 M⁻¹ s⁻¹ | < 0.334 pM | < 1e-06 s⁻¹ | 3e+06 M⁻¹ s⁻¹ |  |  |  | OA.hu.10C5.N53V.S34K.F92Y (antibody, V domains shown, One-armed (OA) monovalent anti-KLK5 antibody with a human IgG1 Fc, with Q38E/Q39K; constant regions and dummy Fc chain not specified) VH: EVQLVESGGGLVQPGGSLRLSCAASGFSLSSYGVTWVRKAPGKGLEWIGYITSVYGVSYYASWAKSRSTISRDTSKNTVYLQMGSLRAEDMAVYYCARENPDYGYAYDAWGQGTTVTVSS VL: AIRMTQSPSSFSASTGDRVTITCQASESISNELKWYQEKPGKAPKLLIYYASTLASGVPSRFSGSGSGTDFTLTISSLQPEDFATYYCAQGYGSSGVENVFGGGTKVEIK | 
 |  |  |  | 7.44 pM | 0.0001 s⁻¹ | 1.35e+07 M⁻¹ s⁻¹ | 2.59 pM | 1.51e-05 s⁻¹ | 5.82e+06 M⁻¹ s⁻¹ |  |  |  | OA.hu.10C5.N53V.S95F (antibody, V domains shown, One-armed (OA) monovalent anti-KLK5 antibody with a human IgG1 Fc, with Q38E/Q39K; constant regions and dummy Fc chain not specified) VH: EVQLVESGGGLVQPGGSLRLSCAASGFSLSSYGVTWVRKAPGKGLEWIGYITSVYGVSYYASWAKSRSTISRDTSKNTVYLQMGSLRAEDMAVYYCARENPDYGYAYDAWGQGTTVTVSS VL: AIRMTQSPSSFSASTGDRVTITCQASESISNELSWYQEKPGKAPKLLIYYASTLASGVPSRFSGSGSGTDFTLTISSLQPEDFATYYCAQGFGSFGVENVFGGGTKVEIK | 
 |  |  |  | 3.03 pM | 2.86e-05 s⁻¹ | 9.41e+06 M⁻¹ s⁻¹ | < 0.235 pM | < 1e-06 s⁻¹ | 4.25e+06 M⁻¹ s⁻¹ |  |  |  | OA.hu.10C5.N53V.S34K.S95F (antibody, V domains shown, One-armed (OA) monovalent anti-KLK5 antibody with a human IgG1 Fc, with Q38E/Q39K; constant regions and dummy Fc chain not specified) VH: EVQLVESGGGLVQPGGSLRLSCAASGFSLSSYGVTWVRKAPGKGLEWIGYITSVYGVSYYASWAKSRSTISRDTSKNTVYLQMGSLRAEDMAVYYCARENPDYGYAYDAWGQGTTVTVSS VL: AIRMTQSPSSFSASTGDRVTITCQASESISNELKWYQEKPGKAPKLLIYYASTLASGVPSRFSGSGSGTDFTLTISSLQPEDFATYYCAQGFGSFGVENVFGGGTKVEIK | 
 |  |  |  | 2.65 pM | 2.81e-05 s⁻¹ | 1.06e+07 M⁻¹ s⁻¹ | 0.367 pM | 1.88e-06 s⁻¹ | 5.13e+06 M⁻¹ s⁻¹ |  |  |  | OA.hu.10C5.N53V.S34K.F92Y.S95F (antibody, V domains shown, One-armed (OA) monovalent anti-KLK5 antibody with a human IgG1 Fc, with Q38E/Q39K; constant regions and dummy Fc chain not specified) VH: EVQLVESGGGLVQPGGSLRLSCAASGFSLSSYGVTWVRKAPGKGLEWIGYITSVYGVSYYASWAKSRSTISRDTSKNTVYLQMGSLRAEDMAVYYCARENPDYGYAYDAWGQGTTVTVSS VL: AIRMTQSPSSFSASTGDRVTITCQASESISNELKWYQEKPGKAPKLLIYYASTLASGVPSRFSGSGSGTDFTLTISSLQPEDFATYYCAQGYGSFGVENVFGGGTKVEIK | 
 |  |  |  |  |  |  |  |  |  | < 1 pM | < 1e-06 s⁻¹ | 2.16e+07 M⁻¹ s⁻¹ | chimeric rb.14H11c-hIgG1 (antibody, V domains shown, Rabbit variable domains (14H11 with C35a to S in VH) on human IgG1; also called Chimeric 14H11c) VH: QSLEESGGDLVKPGASLTLTCTASGFSFSSSYYMSWVRQAPGKGLEWIASIYAGSSGAPYYAGWAKGRFTISKTSSTAVTLQMSSLTAADTATYFCAREGFAETGGYGYAAYFNLWGPGTLVTVSS VL: AIEMTQSPPSLSASVGETVRIRCLASEDIASSVSWYQQKPGKPPTLLIYGASNLESGVPPRFTGSGSGTDYTLTIGGVQAEDAATYYCLGGYSYSSTGTAFGAGTKVEIK | 
370 pM | 730 pM | 370 pM | 670 pM |  |  |  |  |  |  |  |  |  | hu.10C5VY.hu14H11c.L2H11 WT (bispecific antibody, human IgG1, kappa, N297G, hIgG1 N297G knob-in-hole bispecific with Q39E/Q38K, Q39K/Q38E, S183K/V133E and S183E/V133K pairing mutations; also called anti-KLK5/KLK7 bispecific antibody without M428L/N434S) heavy 1: not shown light 1: DIQMTQSPSSLSASVGDRVTITCLASEDIASSVSWYQKKPGKAPKLLIYGASNLESGVPSRFSGSGSGTDYTLTISSLQPEDFATYYCLGGYSYSSTGTAFGGGTKVEIKRTVAAPSVFIFPPSDEQLKSGTASVECLLNNFYPREAKVQWKVDNALQSGNSQESVTEQDSKDSTYSLSSTLTLSKADYEKHKVYACEVTHQGLSSPVTKSFNRGEC heavy 2: EVQLVESGGGLVQPGGSLRLSCAASGFSLSSYGVTWVRKAPGKGLEWIGYITSVYGVSYYASWAKSRSTISRDTSKNTVYLQMGSLRAEDMAVYYCARENPDYGYAYDAWGQGTTVTVSSASTKGPSVFPLAPSSKSTSGGTAALGCLVKDYFPEPVTVSWNSGALTSGVHTFPAVLQSSGLYSLESVVTVPSSSLGTQTYICNVNHKPSNTKVDKKVEPKSCDKTHTCPPCPAPELLGGPSVFLFPPKPKDTLMISRTPEVTCVVVDVSHEDPEVKFNWYVDGVEVHNAKTKPREEQYGSTYRVVSVLTVLHQDWLNGKEYKCKVSNKALPAPIEKTISKAKGQPREPQVYTLPPSREEMTKNQVSLSCAVKGFYPSDIAVEWESNGQPENNYKTTPPVLDSDGSFFLVSKLTVDKSRWQQGNVFSCSVMHEALHNHYTQKSLSLSPGK light 2: AIRMTQSPSSFSASTGDRVTITCQASESISNELSWYQEKPGKAPKLLIYYASTLASGVPSRFSGSGSGTDFTLTISSLQPEDFATYYCAQGYGSSGVENVFGGGTKVEIKRTVAAPSVFIFPPSDEQLKSGTASVKCLLNNFYPREAKVQWKVDNALQSGNSQESVTEQDSKDSTYSLSSTLTLSKADYEKHKVYACEVTHQGLSSPVTKSFNRGEC | Kd (cynomolgus monkey KLK5 [8]): 19 pM; koff (cynomolgus monkey KLK5 [8]): 0.00019 s⁻¹; kon (cynomolgus monkey KLK5 [8]): 1e+07 M⁻¹ s⁻¹; Kd (human KLK5 [9]): 0.8 pM; koff (human KLK5 [9]): 1.5e-05 s⁻¹; kon (human KLK5 [9]): 2.1e+07 M⁻¹ s⁻¹; Kd (human KLK7 [10]): < 1 pM; koff (human KLK7 [10]): < 1e-06 s⁻¹; kon (human KLK7 [10]): 5.8e+07 M⁻¹ s⁻¹; Kd (cynomolgus monkey KLK7): 2.3 pM; koff (cynomolgus monkey KLK7): 9e-05 s⁻¹; kon (cynomolgus monkey KLK7): 4e+07 M⁻¹ s⁻¹
290 pM | > 10000 pM | 290 pM | > 10000 pM |  |  |  |  |  |  | 0.356 pM | 1.22e-05 s⁻¹ | 3.43e+07 M⁻¹ s⁻¹ | hu.14H11c.L2H11-hIgG1 (antibody, V domains shown, Humanized anti-KLK7 antibody, human IgG1) VH: EQQLVESGGGLIQPGGSLRLSCAASGFSFSSSYYMSWVRQAPGKGLEWVSSIYAGSSGAPYYAGWAKGRFTISRDNSKNTLYLQMNSLRAEDTAVYYCAREGFAETGGYGYAAYFNLWGPGTLVTVSS VL: DIQMTQSPSSLSASVGDRVTITCLASEDIASSVSWYQQKPGKAPKLLIYGASNLESGVPSRFSGSGSGTDYTLTISSLQPEDFATYYCLGGYSYSSTGTAFGGGTKVEIK | 
 |  |  |  |  |  |  |  |  |  | 0.894 pM | 2.52e-05 s⁻¹ | 2.82e+07 M⁻¹ s⁻¹ | One-armed hu.14H11c.L2H11-hIgG1 knob-in-hole (antibody, Monovalent one-armed format) heavy: not shown VL: DIQMTQSPSSLSASVGDRVTITCLASEDIASSVSWYQKKPGKAPKLLIYGASNLESGVPSRFSGSGSGTDYTLTISSLQPEDFATYYCLGGYSYSSTGTAFGGGTKVEIK DKTHTCPPCPAPELLGGPSVFLFPPKPKDTLMISRTPEVTCVVVDVSHEDPEVKFNWYVDGVEVHNAKTKPREEQYGSTYRVVSVLTVLHQDWLNGKEYKCKVSNKALPAPIEKTISKAKGQPREPQVYTLPPSREEMTKNQVSLSCAVKGFYPSDIAVEWESNGQPENNYKTTPPVLDSDGSFFLVSKLTVDKSRWQQGNVFSCSVMHEALHNHYTQKSLSLSPGK | 
